From patent publication US20170247465A1, “COMBINATION THERAPY FOR TREATMENT OF CANCER” (OncoMed Pharmaceuticals, Inc., priority 2014, published 2017)
“Also recorded” adds a separate entry of the source.

What was measured:
Type in all cases: in vivo, NOD/SCID mice
[1] = test system: OMP-OV40 ovarian tumor cells; experiment: OMP-OV40 ovarian tumor xenograft, staggered dosing of Wnt inhibitors and paclitaxel (Example 11); settings: Wnt pathway inhibitor 25 mg/kg administered 2 days prior to paclitaxel 20 mg/kg, every two weeks i.p.; versus single agents; FIG. 9
Method: FIG. 9A-9B. Inhibition of ovarian tumor growth in vivo by a Wnt pathway inhibitor in combination with a taxane using a staggered dosing schedule. FIG. 9A. OMP-OV40 ovarian tumor cells were injected subcutaneously into NOD/SCID mice. Mice were treated with control antibody (-•-), OMP-18R5 (-▴-), paclitaxel (-▪-), or a combination of OMP-18R5 and paclitaxel, where OMP-18R5 was administered 2 days prior to administration of paclitaxel (-⋄-). […]. OMP-OV40 ovarian tumor cells were injected subcutaneously into NOD/SCID mice. Mice were treated with control antibody (-•-), OMP-54F28 (-▴-), paclitaxel (-▪-), or a combination of OMP-54F28 and paclitaxel, where OMP-54F28 was administered 2 days prior to administration of paclitaxel (-⋄-). OMP-18R5, OMP-54F28 and control antibody were administered at 25 mg/kg and paclitaxel was administered at 20 mg/kg. Agents were administered once every two weeks and administered intraperitoneally. Data is shown as tumor volume (mm^3) over days post treatment.
Single cell suspensions of xenograft OMP-OV40 ovarian tumor cells were injected subcutaneously into 6-8 week old NOD/SCID mice. Tumors were allowed to grow until they reached an average volume of approximately 128 mm^3. […] Tumor growth was monitored and tumor volumes were measured with electronic calipers at the indicated time points. Data are expressed as mean±S.E.M.

[2] = test system: OMP-LU77 lung tumor cells; experiment: OMP-LU77 lung tumor xenograft, staggered dosing of vantictumab and paclitaxel (Example 6); settings: vantictumab 25 mg/kg administered two days prior to paclitaxel 15 mg/kg, every other week; versus same day, paclitaxel alone; FIG. 4
Method: FIG. 4. Inhibition of lung tumor growth in vivo by a Wnt pathway inhibitor in combination with a taxane using a staggered dosing schedule. OMP-LU77 lung tumor cells were injected subcutaneously into NOD/SCID mice. […] Vantictumab was administered at 25 mg/kg and paclitaxel at 15 mg/kg. Agents were administered every other week and administered intraperitoneally. Data is shown as tumor volume (mm^3) over days post treatment.
OMP-LU77 is a patient-derived non-small cell lung (NSCLC) tumor. Single cell suspensions of xenograft OMP-LU77 lung tumor cells (50,000 cells) were injected subcutaneously into NOD/SCID mice. Tumors were allowed to grow 37 days until they had reached an average volume of approximately 200 mm^3. Tumor-bearing mice were randomized into 4 groups (n=8-9 per group). […] Antibodies were dosed at 25 mg/kg, administered every other week. Paclitaxel was dosed at 15 mg/kg, also every other week. Tumor growth was monitored and tumor volumes were measured on the indicated days post-treatment. Data are expressed as mean±SEM.

[3] = test system: OMP-C28 colon tumor cells; experiment: OMP-C28 colon tumor xenograft, staggered dosing of Wnt inhibitors and nab-paclitaxel (Example 10); settings: Wnt pathway inhibitor 25 mg/kg every two weeks, administered 2 days prior to nab-paclitaxel 15 mg/kg once a week, i.p.; versus single agents; FIG. 8
Method: FIG. 8A-8B. Inhibition of colon tumor growth in vivo by a Wnt pathway inhibitor in combination with a taxane using a staggered dosing schedule. FIG. 8A. OMP-C28 colon tumor cells were injected subcutaneously into NOD/SCID mice. Mice were treated with control antibody (-•-), OMP-18R5 (-▴-), nab-paclitaxel (-▪-), or a combination of OMP-18R5 and nab-paclitaxel, where OMP-18R5 was administered 2 days prior to administration of nab-paclitaxel (-⋄-). FIG. 8B. OMP-C28 colon tumor cells were injected subcutaneously into NOD/SCID mice. Mice were treated with control antibody (-•-), OMP-54F28 (-▴-), nab-paclitaxel (-▪-), or a combination of OMP-54F28 and nab-paclitaxel, where OMP-54F28 was administered 2 days prior to administration of nab-paclitaxel (-⋄-). OMP-18R5, OMP-54F28 and control were administered at 25 mg/kg and nab-paclitaxel was administered at 15 mg/kg. OMP-18R5, OMP-54F28 and control were administered once every two weeks, paclitaxel was administered once a week, and all agents were administered intraperitoneally. Data is shown as tumor volume (mm^3) over days post treatment.
Single cell suspensions of xenograft OMP-C28 colon tumor cells were injected subcutaneously into 6-8 week old NOD/SCID mice. […] Tumor growth was monitored and tumor volumes were measured with electronic calipers at the indicated time points. Data are expressed as mean±S.E.M.

B1: OMP-18R5: anti-FZD antibody, IgG2, also known as vantictumab; heavy chain SEQ ID NO:3, light chain SEQ ID NO:4 (antibody)
heavy: EVQLVESGGGLVQPGGSLRLSCAASGFTFSHYTLSWVRQAPGKGLEWVSVISGDGSYTYYADSVKGRFTISSDNSKNTLYLQMNSLRAEDTAVYYCARNFIKYVFANWGQGTLVTVSSASTKGPSVFPLAPCSRSTSESTAALGCLVKDYFPEPVTVSWNSGALTSGVHTFPAVLQSSGLYSLSSVVTVPSSNFGTQTYTCNVDHKPSNTKVDKTVERKCCVECPPCPAPPVAGPSVFLFPPKPKDTLMISRTPEVTCVVVDVSHEDPEVQFNWYVDGVEVHNAKTKPREEQFNSTFRVVSVLTVVHQDWLNGKEYKCKVSNKGLPAPIEKTISKTKGQPREPQVYTLPPSREEMTKNQVSLTCLVKGFYPSDIAVEWESNGQPENNYKTTPPMLDSDGSFFLYSKLTVDKSRWQQGNVFSCSVMHEALHNHYTQKSLSLSPGK
light: DIELTQPPSVSVAPGQTARISCSGDNIGSFYVHWYQQKPGQAPVLVIYDKSNRPSGIPERFSGSNSGNTATLTISGTQAEDEADYYCQSYANTLSLVFGGGTKLTVLGQPKAAPSVTLFPPSSEELQANKATLVCLISDFYPGAVTVAWKADSSPVKAGVETTTPSKQSNNKYAASSYLSLTPEQWKSHRSYSCQVTHEGSTVEKTVAPTECS
[1]
  inhibition of tumor growth (tumor volume): inhibited tumor growth of the OMP-OV40 ovarian tumor cells to a greater extent than either the Wnt pathway inhibitors or paclitaxel alone; also recorded: inhibited tumor growth
[2]
  inhibition of tumor growth (tumor volume): significantly better at inhibiting tumor growth of the OMP-LU77 lung tumor cells than any of the other dosing regimens
[3]
  inhibition of tumor growth (tumor volume): inhibited tumor growth of the OMP-C28 colon tumor cells to a greater extent than either the Wnt pathway inhibitors or nab-paclitaxel alone
